Test results as given in US20220380475A1 (SORRISO PHARMACEUTICALS, published 2022).
Read-outs that look alike come from different tables or passages of the source.

What was measured:
[1] = target: T1, membrane-bound human IL-6R on TF-1 cells (human, UniProt P08887 20-468); assay: cell-based or functional assay
T1 sequence: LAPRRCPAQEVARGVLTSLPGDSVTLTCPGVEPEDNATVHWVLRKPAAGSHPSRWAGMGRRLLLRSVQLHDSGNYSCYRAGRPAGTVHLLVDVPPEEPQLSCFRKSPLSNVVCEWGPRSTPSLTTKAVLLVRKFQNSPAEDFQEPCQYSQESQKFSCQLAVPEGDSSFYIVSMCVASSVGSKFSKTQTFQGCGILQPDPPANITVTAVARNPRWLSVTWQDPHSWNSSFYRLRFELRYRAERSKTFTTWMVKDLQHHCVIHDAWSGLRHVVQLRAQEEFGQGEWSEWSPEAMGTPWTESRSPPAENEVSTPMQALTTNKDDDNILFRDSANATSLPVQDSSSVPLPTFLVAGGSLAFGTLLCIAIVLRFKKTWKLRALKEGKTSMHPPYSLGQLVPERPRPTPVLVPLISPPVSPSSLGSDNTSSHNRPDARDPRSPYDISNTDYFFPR

[2] = target: T2, recombinant soluble human IL-6R (human, UniProt P08887 20-365); assay: gp130 ELISA (competition), second assay; reference 7F6
T2 construct: also called sIL-6R; shIL-6R
T2 sequence: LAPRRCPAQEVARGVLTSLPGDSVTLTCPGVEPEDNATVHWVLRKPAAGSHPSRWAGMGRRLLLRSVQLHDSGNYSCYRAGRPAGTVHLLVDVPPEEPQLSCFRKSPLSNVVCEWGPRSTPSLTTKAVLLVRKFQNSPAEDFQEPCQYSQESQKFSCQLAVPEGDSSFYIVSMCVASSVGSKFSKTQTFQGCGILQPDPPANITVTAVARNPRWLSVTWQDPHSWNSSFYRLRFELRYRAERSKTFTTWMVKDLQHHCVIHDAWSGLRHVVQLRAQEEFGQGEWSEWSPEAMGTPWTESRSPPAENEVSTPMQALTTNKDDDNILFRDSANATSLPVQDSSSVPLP
Experimental: (§1) Briefly, Maxisorp 96-well plates were coated overnight with 50 μl/well 0.5 μg/ml gp130 then blocked. ICVDs were serially diluted and mixed 1:1 with 100 ng/ml recombinant human IL-6 then 1:1 with 40 ng/ml recombinant human sIL-6R, and incubated for 1 hour to allow binding before adding to the gp130-coated plates. Bound IL-6R was detected with 50 μl/well 0.250 μg/ml BAF227 and then 50 μl/well 1/1000 diluted Extravidin-HRP and the level of neutralisation by the ICVD of IL-6R binding to IL-6/gp130 was determined.
(§2) A separate assay was performed on 21E6 and 7F6 using the same protocol as above with the exception that the ICVD/IL-6R/IL-6 where only incubated with shaking for 10 min before being added to the assay plates.

[3] = target: T2, recombinant soluble human IL-6R; assay: gp130 ELISA (competition), second assay, 10 min pre-incubation; 20 ng/mL IL6R, 100 ng/mL IL6
Experimental: as §1, §2

[4] = target: T2, recombinant soluble human IL-6R; assay: standard gp130 ELISA (competition)
[5] = target: T1, membrane-bound human IL-6R on TF-1 cells; assay: cell-based or functional assay; remark: listed apart in the source
[6] = target: T2, recombinant soluble human IL-6R; assay: cell-based or functional assay
[7] = target: T2, recombinant soluble human IL-6R; assay: Biacore (SPR): ICVD fixed to the sensor, soluble human IL-6R flowed over
Text: The binding kinetics of the trans-selective ID-123V (E. coli produced version of ID-142V) and the cis/trans potent ID-112V (E. coli produced version of ID-144V, but for ID-112V lacking N82Y relative to ID-144V) were compared against tocilizumab in a Biacore study. The ICVDs were fixed to the Biacore sensor plate and soluble human IL-6R was flowed over the plate to detect binding.

[8] = target: T2, recombinant soluble human IL-6R; assay: standard gp130 ELISA (competition), Experiment 1; 10 ng/mL IL-6R, 50 ng/mL IL-6
Experimental: The inhibitory potency and efficacy (maximal inhibition) of the E. coli-produced 5G9 derivatives were confirmed in vitro in the gp130 ELISA, TF-1 cell and M1 cell functional assays measuring responses mediated via human IL-6R. The gp130 assays follow the standard protocol with a final assay concentration of 10 ng/mL IL-6R and 50 ng/mL IL-6.

[9] = target: T1, membrane-bound human IL-6R on TF-1 cells; assay: cell-based or functional assay; remark: listed apart in the source

B1: 21E6 (VHH)
VHH: EVQLVESGGGLVLAGGSTRLTCLASGSISSINVIGWYRQAPGKQRELVAMIGRGEGANYGDFAKGRFTISRDNSKNTVYLQMNSLKPEDTAVYYCYADYEDRDSPLNGSWGQGTQVTVSS
notes: Family-expansion clone related to 7F6 (Q13L and F106L); Expressed from a phagemid vector and purified
In the case of B1, the “IC50 in TF1 assay (separate assay, raised background)” value [1] is reported as 11 nM, the “fold less potent than 7F6” value [2] is reported as about 2 fold and the IC50 [3] is reported as 0.3 nM.

B2: ID-75V (VHH)
VHH: DVQLVESGGGLVQAGGSTRLTCKASGSISNINSINVMAWYRQAPGKQRELVAIIGKGGGTNYADFVKGRFTISRDAAKNTVNLQMNSLKPEDTAVYYCYADYEDHDSPFNASWGQGTQVTVSS
notes: also called 5G9 + E1D, F29S, R105H
B2: binds [4].

B3: ID-112V (VHH)
VHH: EVQLVESGGGLVQAGGSTRLTCKASGSISNINSINVMAWYRQAPGKGRELVAIIGKGGGTNYADFVKGRFTISRDAAKNTVNLQMNSLRPEDTAVYYCYADYEDHDSPFNASWGQGTQVTVSS
notes: E. coli-produced cis/trans potent 5G9 derivative; also called 5G9 + F29S, Q47G, K89R, R105H; not shown: C-terminal FLAG-6xHis
With B3 the “TF-1 cell assay EC50 (5 ng/ml IL-6)” value [5] was 0.18 nM, the “M1 cellular assay EC50 (20 ng/ml IL-6R, 100 ng/ml IL-6)” value [6] was 0.55 nM and the Kd [7] was 0.04 nM. The EC50 [8] was 0.15 nM.

B4: ID-114V (VHH)
VHH: EVQLVESGGGLVQAGGSTRLTCKASGSISNINSINVMAWYRQAPGKQRELVAIIGKGGGTNYADFVKGRFTISRDAAKNTLYLQMNSLKPEDTAVYYCYADYEDHDSPFNASWGQGTQVTVSS
notes: E. coli-produced cis/trans potent 5G9 derivative; also called 5G9 + F29S, V81L, N82Y, R105H; not shown: C-terminal FLAG-6xHis
With B4 the “TF-1 cell assay EC50 (5 ng/ml IL-6)” value [9] was 0.29 nM, the “M1 cellular assay EC50 (20 ng/ml IL-6R, 100 ng/ml IL-6)” value [6] was 0.52 nM and the EC50 [8] was 0.138 nM.
